Like-named read-outs stand apart in the source and are kept apart here.
Assays:
Assay in all cases: two-hybrid library CCmax;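 also: natural log of median RNA to DNA barcode read ratio; higher means stronger binding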
4H3595-AA = molecular target: T1, 4H3595-AA; details: mean of both orientations
T1 chain: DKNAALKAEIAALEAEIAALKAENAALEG

4H432-AA = molecular target: T2, 4H432-AA; details: mean of both orientations
T2 chain: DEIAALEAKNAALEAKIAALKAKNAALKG

4H3590-AA = molecular target: T3, 4H3590-AA; details: mean of both orientations
T3 chain: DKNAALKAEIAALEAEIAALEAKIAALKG

4H3782-AA = molecular target: T4, 4H3782-AA; details: mean of both orientations
T4 chain: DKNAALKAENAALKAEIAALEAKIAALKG

4H3629-AA = molecular target: T5, 4H3629-AA; details: mean of both orientations
T5 chain: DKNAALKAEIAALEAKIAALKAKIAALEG

4H3974-AA = molecular target: T6, 4H3974-AA; details: mean of both orientations
T6 chain: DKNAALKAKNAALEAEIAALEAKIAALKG

4H324-AA = molecular target: T7, 4H324-AA; details: mean of both orientations
T7 chain: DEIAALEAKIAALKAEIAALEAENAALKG

4H63-AA = molecular target: T8, 4H63-AA; details: mean of both orientations
T8 chain: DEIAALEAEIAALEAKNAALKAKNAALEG

4H_GCN4 = molecular target: 4H_GCN4
4H_GCN4, sequence (chain, as listed by the source): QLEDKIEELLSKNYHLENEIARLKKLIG

O11-AA = molecular target: T9, O11-AA; details: mean of both orientations
T9 chain: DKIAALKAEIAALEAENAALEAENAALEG

4H337-AA = molecular target: T10, 4H337-AA
T10 chain: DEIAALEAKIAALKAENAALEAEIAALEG

GCN2_T = molecular target: GCN2_T
4H4038-AA = molecular target: T11, 4H4038-AA; details: mean of both orientations
T11 chain: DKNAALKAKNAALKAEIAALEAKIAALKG

4H3915-AA = molecular target: T12, 4H3915-AA; details: mean of both orientations
T12 chain: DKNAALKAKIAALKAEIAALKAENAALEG

4H510-AA = molecular target: T13, 4H510-AA; details: mean of both orientations
T13 chain: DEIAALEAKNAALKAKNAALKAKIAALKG

4H3449-AA = molecular target: T14, 4H3449-AA; details: mean of both orientations
T14 chain: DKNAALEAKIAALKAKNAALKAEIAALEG

4H483-AA = molecular target: T15, 4H483-AA; details: mean of both orientations
T15 chain: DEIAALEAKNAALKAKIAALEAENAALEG

4H3939-AA = molecular target: T16, 4H3939-AA; details: mean of both orientations
T16 chain: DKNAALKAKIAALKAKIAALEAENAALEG

4H3969-AA = molecular target: T17, 4H3969-AA; details: mean of both orientations
T17 chain: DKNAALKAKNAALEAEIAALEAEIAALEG

4H43-AA = molecular target: T18, 4H43-AA; details: mean of both orientations
T18 chain: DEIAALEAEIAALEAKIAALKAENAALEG

4H3619-AA = molecular target: T19, 4H3619-AA; details: mean of both orientations
T19 chain: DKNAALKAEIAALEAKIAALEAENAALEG

4H3129-AA = molecular target: T20, 4H3129-AA; details: mean of both orientations
T20 chain: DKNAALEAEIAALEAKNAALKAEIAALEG

4H446-AA = molecular target: T21, 4H446-AA; details: mean of both orientations
T21 chain: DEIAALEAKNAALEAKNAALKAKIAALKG

4H_BCR = molecular target: T22, 4H_BCR; details: mean of both orientations
T22 chain: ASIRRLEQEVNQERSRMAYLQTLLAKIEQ

4H380-AA = molecular target: T23, 4H380-AA; details: mean of both orientations
T23 chain: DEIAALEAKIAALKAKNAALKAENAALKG

4H3625-AA = molecular target: T24, 4H3625-AA; details: mean of both orientations
T24 chain: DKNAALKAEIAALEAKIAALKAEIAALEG

4H_APH = molecular target: T25, 4H_APH; details: mean of both orientations
T25 chain: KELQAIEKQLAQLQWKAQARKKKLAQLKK

4H384-AA = molecular target: T26, 4H384-AA
T26 chain: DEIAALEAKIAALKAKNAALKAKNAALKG

4H3049-AA = molecular target: T27, 4H3049-AA
T27 chain: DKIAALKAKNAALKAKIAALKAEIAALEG

4H464-AA = molecular target: T28, 4H464-AA; details: mean of both orientations
T28 chain: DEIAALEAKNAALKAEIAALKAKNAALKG

O14-AA = molecular target: T29, O14-AA; details: mean of both orientations
T29 chain: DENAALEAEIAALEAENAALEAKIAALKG

4H3414-AA = molecular target: T30, 4H3414-AA; details: mean of both orientations
T30 chain: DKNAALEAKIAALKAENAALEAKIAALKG

4H451-AA = molecular target: T31, 4H451-AA; details: mean of both orientations
T31 chain: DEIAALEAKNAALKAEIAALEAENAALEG

4H3587-AA = molecular target: T32, 4H3587-AA
T32 chain: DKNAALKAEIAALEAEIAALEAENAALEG

4H3777-AA = molecular target: T33, 4H3777-AA; details: mean of both orientations
T33 chain: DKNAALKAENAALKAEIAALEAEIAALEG

4H341-AA = molecular target: T34, 4H341-AA; details: mean of both orientations
T34 chain: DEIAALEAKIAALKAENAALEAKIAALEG

4H3094-AA = molecular target: T35, 4H3094-AA; details: mean of both orientations
T35 chain: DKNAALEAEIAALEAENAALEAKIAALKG

O13-AA = molecular target: T36, O13-AA; details: mean of both orientations
T36 chain: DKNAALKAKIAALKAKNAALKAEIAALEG

4H32-AA = molecular target: T37, 4H32-AA
T37 chain: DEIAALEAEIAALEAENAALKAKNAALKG

APC3323-AA = molecular target: T38, APC3323-AA; details: mean of both orientations
T38 chain: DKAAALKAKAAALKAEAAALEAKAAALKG

APC2981-AA = molecular target: T39, APC2981-AA; details: mean of both orientations
T39 chain: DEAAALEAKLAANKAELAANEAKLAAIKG

APC9182-AA = molecular target: T40, APC9182-AA; details: mean of both orientations
T40 chain: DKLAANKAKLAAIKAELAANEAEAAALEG

APC6088-AA = molecular target: T41, APC6088-AA; details: mean of both orientations
T41 chain: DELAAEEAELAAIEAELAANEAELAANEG

APC9806-AA = molecular target: T42, APC9806-AA; details: mean of both orientations
T42 chain: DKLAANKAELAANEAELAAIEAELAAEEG

APC3265-AA = molecular target: T43, APC3265-AA; details: mean of both orientations
T43 chain: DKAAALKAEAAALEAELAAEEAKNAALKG

APC3354-AA = molecular target: T44, APC3354-AA; details: mean of both orientations
T44 chain: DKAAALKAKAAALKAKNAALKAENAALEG

APC5531-AA = molecular target: T45, APC5531-AA; details: mean of both orientations
T45 chain: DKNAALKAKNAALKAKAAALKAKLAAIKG

APC3881-AA = molecular target: T46, APC3881-AA; details: mean of both orientations
T46 chain: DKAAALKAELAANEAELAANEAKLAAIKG

APC4100-AA = molecular target: T47, APC4100-AA; details: mean of both orientations
T47 chain: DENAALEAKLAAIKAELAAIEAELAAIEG

APC9291-AA = molecular target: T48, APC9291-AA; details: mean of both orientations
T48 chain: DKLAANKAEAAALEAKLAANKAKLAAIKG

APC542-AA = molecular target: T49, APC542-AA; details: mean of both orientations
T49 chain: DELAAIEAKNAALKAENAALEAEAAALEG

APC9141-AA = molecular target: T50, APC9141-AA; details: mean of both orientations
T50 chain: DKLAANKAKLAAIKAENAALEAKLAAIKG

APC2811-AA = molecular target: T51, APC2811-AA
T51 chain: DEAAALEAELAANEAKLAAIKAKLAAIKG

APC5009-AA = molecular target: T52, APC5009-AA; details: mean of both orientations
T52 chain: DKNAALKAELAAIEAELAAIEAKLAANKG

APC4336-AA = molecular target: T53, APC4336-AA; details: mean of both orientations
T53 chain: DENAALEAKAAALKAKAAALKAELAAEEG

APC8516-AA = molecular target: T54, APC8516-AA; details: mean of both orientations
T54 chain: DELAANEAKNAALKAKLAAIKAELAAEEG

APC7524-AA = molecular target: T55, APC7524-AA; details: mean of both orientations
T55 chain: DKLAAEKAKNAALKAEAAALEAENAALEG

APC8401-AA = molecular target: T56, APC8401-AA; details: mean of both orientations
T56 chain: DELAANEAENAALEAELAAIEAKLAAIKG

4H3905-AA = molecular target: T57, 4H3905-AA; details: mean of both orientations
T57 chain: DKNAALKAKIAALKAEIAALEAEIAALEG

B1: 4H3049-AA (peptide)
chain: DKIAALKAKNAALKAKIAALKAEIAALEG
4H3595-AA
  interaction score: -1.01
4H432-AA
  interaction score: -0.00195
4H3590-AA
  interaction score: 1.4
4H3782-AA
  interaction score: 1.57
4H3629-AA
  interaction score: -0.842
4H3974-AA
  interaction score: 1.52
4H324-AA
  interaction score: -0.645
4H63-AA
  interaction score: -1.15
4H_GCN4
  interaction score: -0.802
O11-AA
  interaction score: 0.334
4H337-AA; mean of both orientations
  interaction score: 1.59
GCN2_T; mean of both orientations
  interaction score: -0.776
4H4038-AA
  interaction score: 1.1
4H3915-AA
  interaction score: -1.52
4H510-AA
  interaction score: -1.55
4H3449-AA
  interaction score: -1.67
4H483-AA
  interaction score: -1.48
4H3939-AA
  interaction score: -0.638
4H3969-AA
  interaction score: -0.09
4H43-AA
  interaction score: 1.67
4H3619-AA
  interaction score: -0.754
4H3129-AA
  interaction score: -1.06
4H446-AA
  interaction score: -0.416
4H_BCR
  interaction score: -2.02
4H380-AA
  interaction score: -1.68
4H3625-AA
  interaction score: -0.0279
4H_APH
  interaction score: -1.8
4H384-AA; mean of both orientations
  interaction score: -1.42
4H3049-AA
  interaction score: -0.619
4H464-AA
  interaction score: 0.452
O14-AA
  interaction score: 1.66
4H3414-AA
  interaction score: -0.414
4H451-AA
  interaction score: -1.18
4H3587-AA
  interaction score: -0.69
4H3777-AA
  interaction score: -0.0348
4H341-AA
  interaction score: 0.355
4H3094-AA
  interaction score: 1.63
O13-AA
  interaction score: -1.55
4H32-AA
  interaction score: 0.0606

B2: APC2811-AA (peptide)
chain: DEAAALEAELAANEAKLAAIKAKLAAIKG
APC3323-AA
  interaction score: -1.68
APC2981-AA
  interaction score: -1.57
APC9182-AA
  interaction score: -1.35
APC6088-AA
  interaction score: -1.51
APC9806-AA
  interaction score: -1.74
APC3265-AA
  interaction score: -1.3
APC3354-AA
  interaction score: -1.67
APC5531-AA
  interaction score: -1.88
APC3881-AA
  interaction score: -1.68
APC4100-AA
  interaction score: 0.341
APC9291-AA
  interaction score: -1.78
APC542-AA
  interaction score: -1.59
APC9141-AA
  interaction score: -1.29
APC2811-AA
  interaction score: -0.415
APC5009-AA
  interaction score: -0.812
APC4336-AA
  interaction score: -1.61
APC8516-AA
  interaction score: -1.65
APC7524-AA
  interaction score: -1.75
APC8401-AA
  interaction score: -1.58

B3: 4H337-AA (peptide)
chain: DEIAALEAKIAALKAENAALEAEIAALEG
4H3590-AA
  interaction score: 0.707
4H_GCN4
  interaction score: -1.01
O11-AA
  interaction score: -0.88
4H337-AA
  interaction score: -0.119
GCN2_T
  interaction score: -1.48
4H4038-AA
  interaction score: 2.08
4H510-AA
  interaction score: 1.23
4H43-AA
  interaction score: -0.783
4H_BCR
  interaction score: -0.845
4H3625-AA
  interaction score: -0.713
4H3905-AA
  interaction score: -0.0231
4H_APH
  interaction score: -1.22
4H384-AA
  interaction score: 1.88
O14-AA
  interaction score: 1.85
4H451-AA
  interaction score: -0.516
4H3587-AA; mean of both orientations
  interaction score: -1.2
O13-AA
  interaction score: 0.869
